{"source": "patent US20130231277A1", "about": "(NEW YORK UNIVERSITY, published 2013)", "molecular_target": "T1, ectodomain of murine βKlotho (F53 to L995 of SEQ ID NO: 218) with a C-terminal FLAG tag (murine, UniProt Q99N32 53-995)", "T1 construct": "Expressed in HEK293 cells and purified from culture media; also called βKlotho ectodomain; not shown: C-terminal FLAG tag", "T1 sequence": "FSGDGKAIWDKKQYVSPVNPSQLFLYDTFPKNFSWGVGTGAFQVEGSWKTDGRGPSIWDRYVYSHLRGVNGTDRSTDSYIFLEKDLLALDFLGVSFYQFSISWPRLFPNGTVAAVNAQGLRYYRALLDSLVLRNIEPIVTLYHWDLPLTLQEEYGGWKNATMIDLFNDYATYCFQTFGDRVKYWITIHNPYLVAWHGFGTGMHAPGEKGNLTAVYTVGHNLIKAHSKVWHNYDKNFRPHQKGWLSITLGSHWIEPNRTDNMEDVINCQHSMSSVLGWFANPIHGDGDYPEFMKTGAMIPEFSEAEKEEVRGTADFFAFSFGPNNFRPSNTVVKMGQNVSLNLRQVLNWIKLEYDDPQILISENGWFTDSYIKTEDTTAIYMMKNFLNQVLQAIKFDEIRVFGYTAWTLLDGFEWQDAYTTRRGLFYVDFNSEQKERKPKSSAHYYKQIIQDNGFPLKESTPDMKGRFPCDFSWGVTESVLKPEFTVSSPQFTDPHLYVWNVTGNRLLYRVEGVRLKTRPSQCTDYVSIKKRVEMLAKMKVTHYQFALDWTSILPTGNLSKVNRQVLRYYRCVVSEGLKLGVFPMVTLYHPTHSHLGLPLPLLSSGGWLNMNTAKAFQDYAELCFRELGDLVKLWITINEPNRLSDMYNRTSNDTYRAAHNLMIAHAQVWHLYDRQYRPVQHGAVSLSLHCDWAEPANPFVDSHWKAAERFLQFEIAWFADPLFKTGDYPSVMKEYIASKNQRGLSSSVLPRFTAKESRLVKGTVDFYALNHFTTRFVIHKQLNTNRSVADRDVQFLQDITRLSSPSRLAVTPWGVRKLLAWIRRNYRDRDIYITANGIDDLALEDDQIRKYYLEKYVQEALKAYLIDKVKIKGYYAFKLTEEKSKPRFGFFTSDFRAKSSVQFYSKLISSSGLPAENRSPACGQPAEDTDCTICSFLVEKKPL", "experiment": "SPR competition; FGF21 immobilized, fixed βKlotho ectodomain mixed with increasing FGF21 (FIG. 7A)", "description": "Increasing concentrations of FGF21 were mixed with a fixed concentration of βKlotho ectodomain, and the mixtures were passed over a FGF21 chip. […] Increasing concentrations of FGF21²⁹⁻¹⁹⁰/FGF19¹⁹⁷⁻²¹⁶ chimera were mixed with a fixed concentration of βKlotho ectodomain, and the mixtures were passed over a FGF21 chip. […] The figure was created from the data shown in FIGS. 7A-B, which are representative of two independent experiments.\nSPR experiments were performed on a Biacore 2000 instrument (Biacore AB), and all the protein-protein and protein-peptide interactions were studied at 25° C. in HBS-EP buffer (10 mM HEPES-NaOH, pH 7.4, 150 mM NaCl, 3 mM EDTA, 0.005% (v/v) polysorbate 20). Proteins were immobilized by amine coupling on flow channels of research grade CM5 chips (Biacore AB). Proteins were injected over a CM5 chip at a flow rate of 50 μl min⁻¹, and at the end of each protein injection (180 s), HBS-EP buffer (50 μl min⁻¹) was flowed over the chip to monitor dissociation for 180 s. In experiments where βKlotho binding to FGFR was analyzed, the chip surface was then regenerated by injecting 50 μl of 2.0 M NaCl in 10 mM sodium/potassium phosphate, pH 6.5. In experiments where α/βKlotho binding to FGF19/21/23 or binding of the FGFR1c-βKlotho complex to FGF21 was studied, 2.0 M NaCl in 10 mM sodium acetate, pH 4.5 was used for chip regeneration. […]", "data": [{"binder": "human FGF21, secreted bioactive form (H29 to S209 of SEQ ID NO: 100) (ligand, Used both immobilized on the SPR chip and in solution; also called wild-type FGF21; native FGF21) HPIPDSSPLLQFGGQVRQRYLYTDDAQQTEAHLEIREDGTVGGAADQSPESLLQLKALKPGVIQILGVKTSRFLCQRPDGALYGSLHFDPEACSFRELLLEDGYNVYQSEAHGLPLHLPGNKSPHRDPAPRGPARFLPLPGLPPALPEPPGILAPQPPDVGSSDPLSMVGPSQGRSPSYAS", "values": [{"measurement": "binding result", "value": "binds"}]}]}
